Entries after “also recorded” stand apart in the source; their conditions may differ. Where two headings read alike, the source gives them in different places.
B1: saposin C: heat-stable glycoprotein generated by proteolytic processing of prosaposin (protein, UniProt P07602 311-390, looked up)
Saposin-C: SDVYCEVCEFLVKEVTKLIDNNKTEKEILDAFDKMCSKLPKSLSEECQEVVDTYGSSILSILLEEVSPELVCSMLHLCSG
modifications: Saposin-C
B2: saposin A: saposin from prosaposin; inactive compound that binds the receptor without stimulating effector functions (protein, UniProt P07602 60-142, looked up)
Saposin-A: SLPCDICKDVVTAAGDMLKDNATEEEILVYLEKTCDWLPKPNMSASCKEIVDSYLPVILDIIKGEMSRPGEVCSALNLCESLQ
modifications: Saposin-A
B3: prosaposin: 70 kilodalton glycoprotein, precursor of saposins A, B, C and D (protein, UniProt P07602 17-524, looked up)
pro-form: GPVLGLKECTRGSAVWCQNVKTASDCGAVKHCLQTVWNKPTVKSLPCDICKDVVTAAGDMLKDNATEEEILVYLEKTCDWLPKPNMSASCKEIVDSYLPVILDIIKGEMSRPGEVCSALNLCESLQKHLAELNHQKQLESNKIPELDMTEVVAPFMANIPLLLYPQDGPRSKPQPKDNGDVCQDCIQMVTDIQTAVRTNSTFVQALVEHVKEECDRLGPGMADICKNYISQYSEIAIQMMMHMQPKEICALVGFCDEVKEMPMQTLVPAKVASKNVIPALELVEPIKKHEVPAKSDVYCEVCEFLVKEVTKLIDNNKTEKEILDAFDKMCSKLPKSLSEECQEVVDTYGSSILSILLEEVSPELVCSMLHLCSGTRLPALTVHVTQPKDGGFCEVCKKLVGYLDRNLEKNSTKQEILAALEKGCSFLPDPYQKQCDQFVAEYEPVLIEILVEVMDPSFVCLKIGACPSAHKPLLGTEKCIWGPSYWCQNTETAAQCNAVEHCKRHVWN
modifications: pro-form
notes: 70 kilodalton glycoprotein, precursor of saposins A, B, C and D

Columns and labels:
NS20Y cells = details: as described in U.S. Pat. No. 5,571,787 and PCT/US94/08453, cited from earlier work
[1] = tested on: NS20Y neuroblastoma cells; details: as described in U.S. Pat. No. 5,571,787 and PCT/US94/08453; cited from earlier work
MAPK = assay: MAP kinase (MAPK) phosphorylation assay; assay type: cell-based; details: after binding to the prosaposin receptor
Description: PC12 cells are grown to 85% confluence in DME high glucose media containing 10% FBS, 5% horse serum, 100 U/ml penicillin, 100 μg/ml streptomycin and 250 pg/ml fimgizone. Approximately 2×10^6 cells per 100 mm plate are placed in serum-free media for 24 hours prior to addition of compounds capable of binding to the prosaposin receptor. Positive controls are as described previously. Cells are stimulated with the compound of interest, then lysed on ice in 1 ml of 50 mM Tris-HCl, pH 8.0, 150 mM NaCl, 1 mM EGTA, pH 8.0, 100 mM NaF, pH 8.0, 10% glycerol, 1.5 mM MgCl2. 1% (v/v) Triton X-100, 1 mM sodium orthovanadate, 1 mM phenylmethylsulfonyl fluoride (PMSF), 10 μg/ml leupeptin, 20 μg/ml aprotinin. Unsolubilized materials are removed by ultracentrifugation at 12,000 x g at4° C.
Equal amounts of cell lysates are resolved by sodium dodecyl sulfate-polyacrylamide gel electrophoresis (SDS-PAGE) and transferred to a PVDF membrane (Millipore, Bedford, Mass.). Phosphorylated MAPK is identified using PhosphoPlus™ MAPK antibody and an alkaline phosphatase conjugated secondary antibody that emits light in the presence of a chemiluminescent substrate (New England Biolabs, Beverly, Mass.). […] Densitometric data are expressed as a ratio of MAPK-P absorbance units divided by MAPK-C absorbance units. […]

[2] = tested on: Newborn mouse cerebellar explants; details: as described in U.S. Pat. No. 5,571,787 and PCT/US94/08453; cited from earlier work
prosaposin receptor [3] = details: cited from earlier work
prosaposin receptor [4] = details: cited from earlier work; remark: listed apart in the source
several proteins = details: cited from earlier work

Row | phosphorylation of MAPK (MAPK) | Molecule | prevention of neural cell death (NS20Y cells) | neurite outgrowth [1] | stimulation of myelination [2] | stimulation of receptor effector functions (prosaposin receptor [3]) | binding to receptor (prosaposin receptor [4]) | incorporation of 32P into several proteins (several proteins) | prevention of neural cell death (NS20Y cells; listed as Prosaposin)
1 | stimulate phosphorylation of MAPK | B1 | prevent neuronal cell death; also recorded: prevent neural cell death | induce neurite outgrowth | stimulate myelination |  |  |  | 
2 |  | B2 |  |  |  | without stimulating any of its effector functions | binds to the receptor |  | 
3 | stimulate phosphorylation of MAPK | B3 | prevent neural cell death | induce neurite outgrowth | stimulate myelination |  | binds to a cell surface receptor | stimulates incorporation of ^32P into several proteins | prevent neuronal cell death

— patent US20020019014A1, “Methods of identifying prosaposin receptor agonists and antagonists” (priority 1997, published 2002)
